Measured values reported in IntAct's records for PubMed 34400613.

B1: Ras GTPase-activating protein-binding protein 2 (Homo sapiens), Q9UN86 (parent)
chain: MVMEKPSPLLVGREFVRQYYTLLNKAPEYLHRFYGRNSSYVHGGVDASGKPQEAVYGQNDIHHKVLSLNFSECHTKIRHVDAHATLSDGVVVQVMGLLSNSGQPERKFMQTFVLAPEGSVPNKFYVHNDMFRYEDEVFGDSEPELDEESEDEVEEEQEERQPSPEPVQENANSGYYEAHPVTNGIEEPLEESSHEPEPEPESETKTEELKPQVEEKNLEELEEKSTTPPPAEPVSLPQEPPKAFSWASVTSKNLPPSGTVSSSGIPPHVKAPVSQPRVEAKPEVQSQPPRVREQRPRERPGFPPRGPRPGRGDMEQNDSDNRRIIRYPDSHQLFVGNLPHDIDENELKEFFMSFGNVVELRINTKGVGGKLPNFGFVVFDDSEPVQRILIAKPIMFRGEVRLNVEEKKTRAARERETRGGGDDRRDIRRNDRGPGGPRGIVGGGMMRDRDGRGPPPRGGMAQKLGSGRGTGQMEGRFTGQRR

Variants of: B1
Settings: with ncap_sars2 N

| Variant | effect of a mutation on the interaction |
| --- | --- |
| MVMEKPSPLLVGREAVRQYYTLLNKAPEYLHRAYGRNSSYVHGGVDASGKPQEAVYGQNDIHHKVLSLNFSECHTKIRHVDAHATLSDGVVVQVMGLLSNSGQPERKFMQTFVLAPEGSVPNKAYVHNDMFRYEDEVFGDSEPELDEESEDEVEEEQEERQPSPEPVQENANSGYYEAHPVTNGIEEPLEESSHEPEPEPESETKTEELKPQVEEKNLEELEEKSTTPPPAEPVSLPQEPPKAFSWASVTSKNLPPSGTVSSSGIPPHVKAPVSQPRVEAKPEVQSQPPRVREQRPRERPGFPPRGPRPGRGDMEQNDSDNRRIIRYPDSHQLFVGNLPHDIDENELKEFFMSFGNVVELRINTKGVGGKLPNFGFVVFDDSEPVQRILIAKPIMFRGEVRLNVEEKKTRAARERETRGGGDDRRDIRRNDRGPGGPRGIVGGGMMRDRDGRGPPPRGGMAQKLGSGRGTGQMEGRFTGQRR [F15A;F33A;F124A] | disrupting interaction strength |
| MVMEKPSPLLVGREAVRQYYTLLNKAPEYLHRAYGRNSSYVHGGVDASGKPQEAVYGQNDIHHKVLSLNFSECHTKIRHVDAHATLSDGVVVQVMGLLSNSGQPERKFMQTFVLAPEGSVPNKFYVHNDMFRYEDEVFGDSEPELDEESEDEVEEEQEERQPSPEPVQENANSGYYEAHPVTNGIEEPLEESSHEPEPEPESETKTEELKPQVEEKNLEELEEKSTTPPPAEPVSLPQEPPKAFSWASVTSKNLPPSGTVSSSGIPPHVKAPVSQPRVEAKPEVQSQPPRVREQRPRERPGFPPRGPRPGRGDMEQNDSDNRRIIRYPDSHQLFVGNLPHDIDENELKEFFMSFGNVVELRINTKGVGGKLPNFGFVVFDDSEPVQRILIAKPIMFRGEVRLNVEEKKTRAARERETRGGGDDRRDIRRNDRGPGGPRGIVGGGMMRDRDGRGPPPRGGMAQKLGSGRGTGQMEGRFTGQRR [F15A;F33A] | decreasing interaction strength |
| MVMEKPSPLLVGREAVRQYYTLLNKAPEYLHRFYGRNSSYVHGGVDASGKPQEAVYGQNDIHHKVLSLNFSECHTKIRHVDAHATLSDGVVVQVMGLLSNSGQPERKFMQTFVLAPEGSVPNKFYVHNDMFRYEDEVFGDSEPELDEESEDEVEEEQEERQPSPEPVQENANSGYYEAHPVTNGIEEPLEESSHEPEPEPESETKTEELKPQVEEKNLEELEEKSTTPPPAEPVSLPQEPPKAFSWASVTSKNLPPSGTVSSSGIPPHVKAPVSQPRVEAKPEVQSQPPRVREQRPRERPGFPPRGPRPGRGDMEQNDSDNRRIIRYPDSHQLFVGNLPHDIDENELKEFFMSFGNVVELRINTKGVGGKLPNFGFVVFDDSEPVQRILIAKPIMFRGEVRLNVEEKKTRAARERETRGGGDDRRDIRRNDRGPGGPRGIVGGGMMRDRDGRGPPPRGGMAQKLGSGRGTGQMEGRFTGQRR [F15A] | decreasing interaction strength |
